Series [1] deals with hTERT-HMEC. The experiment in a line: percentage of EdU-negative (G0-arrested) nuclei per well, 72 h; higher = more G0 arrest. As to conditions: reference: sequence is the full UniProt precursor, the tested protein was the secreted form or ectodomain.
In series [2] the test system is MCF7. The description is as above. Conditions: reference: sequence is the full UniProt precursor, the tested protein was the secreted form or ectodomain.
The mark [3] stands for this setting: protein concentration 0.01625 µM.
Where [4] appears, read: protein concentration 0.1625 µM.
Where [5] appears, read: protein concentration 0.03125 µM.
Setting [6] is: protein concentration 0.3125 µM.
The mark [7] stands for this setting: protein concentration 0.0173625 µM.
Where [8] appears, read: protein concentration 0.173625 µM.
[9] abbreviates: protein concentration 0.0142825 µM.
[10] abbreviates: protein concentration 0.142825 µM.
The mark [11] stands for this setting: protein concentration 0.0145 µM.
Setting [12] is: protein concentration 0.0334286 µM.
Where [13] appears, read: protein concentration 0.334286 µM.
The mark [14] stands for this setting: protein concentration 0.0225 µM.

± gives the standard deviation of the averaged measurements.
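Also: secreted proteins added to cultured cells, EdU pulse at the end, nuclei found by Hoechst imaging, EdU status from nuclear versus surrounding ring intensity ratio, PBS as neutral control.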

Consider “MKLALLLPWACCCLCGSALATGFLYPFSAAALQQHGYPEPGAGSPGSGYASRRHWCHHTVTRTVSCQVQNGSETVVQRVYQSCRWPGPCANLVSYRTLIRPTYRVSYRTVTVLEWRCCPGFTGSNCDEECMNCTRLSDMSERLTTLEAKVLLLEAAERPSSPDNDLPAPESTPPTWNEDFLPDAIPLAHPVPRQRRPTGPAGPPGQTGPPGPAGPPGSKGDRGQTGEKGPAGPPGLLGPPGPRGLPGEMGRPGPPGPPGPAGNPGPSPNSPQGALYSLQPPTDKDNGDSRLASAIVDTVLAGVPGPRGPPGPPGPPGPRGPPGPPGTPGSQGLAGERGTVGPSGEPGVKGEEGEKAATAEGEGVQQLREALKILAERVLILEHMIGIHDPLASPEGGSGQDAALRANLKMKRGGAQPDGVLAALLGPDPGQKSVDQASSRK [Q96A83]”, for which the “percentage of EdU-negative” value in series [1] (setting [3]) was 4.63 ± 0.36%; in series [1] (setting [4]) it was 7.44 ± 3.3%; in series [2] (setting [3]), 26.9 ± 1.4%; in series [2] (setting [4]) it was 25.1 ± 1.8%.

As for “MKLAVTLTLVTLALCCSSASAEICPSFQRVIETLLMDTPSSYEAAMELFSPDQDMREAGAQLKKLVDTLPQKPRESIIKLMEKIAQSSLCN”, the “percentage of EdU-negative” value was 4.77 ± 0.77% in series [1] (setting [5]), 4.91 ± 0.97% in series [1] (setting [6]), 22.8 ± 2.1% in series [2] (setting [5]) and 24.6 ± 0.57% in series [2] (setting [6]).

As for “MKLCSLAVLVPIVLFCEQHVFAFQSGQVLAALPRTSRQVQVLQNLTTTYEIVLWQPVTADLIVKKKQVHFFVNASDVDNVKAHLNVSGIPCSVLLADVEDLIQQQISNDTVSPRASASYYEQYHSLNEIYSWIEFITERHPDMLTKIHIGSSFEKYPLYVLKVSGKEQAAKNAIWIDCGIHAREWISPAFCLWFIGHITQFYGIIGQYTNLLRLVDFYVMPVVNVDGYDYSWKKNRMWRKNRSFYANNHCIGTDLNRNFASKHWCEEGASSSSCSETYCGLYPESEPEVKAVASFLRRNINQIKAYISMHSYSQHIVFPYSYTRSKSKDHEELSLVASEAVRAIEKISKNTRYTHGHGSETLYLAPGGGDDWIYDLGIKYSFTIELRDTGTYGFLLPERYIKPTCREAFAAVSKIAWHVIRNV [Q96IY4]”, the “percentage of EdU-negative” value was 5.24 ± 0.032% in series [1] (setting [7]), 5.84 ± 0.41% in series [1] (setting [8]), 24.7 ± 2.5% in series [2] (setting [7]) and 26.8 ± 0.93% in series [2] (setting [8]).

Turning to “MKLCVTVLSLLMLVAAFCSPALSAPMGSDPPTACCFSYTARKLPRNFVVDYYETSSLCSQPAVVFQTKRSKQVCADPSESWVQEYVYDLELN”, the “percentage of EdU-negative” value in series [1] (setting [9]) was determined as 5.53 ± 0.77%; in series [1] (setting [10]) it was 5.12 ± 0.26%; in series [2] (setting [9]), 24.5 ± 1.1%; in series [2] (setting [10]), 25.7 ± 0.56%.

“MKLCVTVLSLLVLVAAFCSLALSAPMGSDPPTACCFSYTARKLPRNFVVDYYETSSLCSQPAVVFQTKRGKQVCADPSESWVQEYVYDLELN [Q8NHW4]”: the “percentage of EdU-negative” value in series [1] (setting [11]) turned out to be 5.26 ± 0.85%; in series [1] (protein concentration 0.145 µM), 6.68 ± 1.3%; in series [2] (setting [11]), 23.4 ± 2%; in series [2] (protein concentration 0.145 µM), 25.62 ± 0.055%.

With “MKLDMTGDCTPVLVLMAAVLTVTGAVPVARLHGALPDARGCHIAQFKSLSPQELQAFKRAKDALEESLLLKDCRCHSRLFPRTWDLRQLQVRERPMALEAELALTLKVLEATADTDPALVDVLDQPLHTLHHILSQFRACIQPQPTAGPRTRGRLHHWLYRLQEAPKKESPGCLEASVTFNLFRLLTRDLNCVASGDLCV [Q8IZJ0]”, the “percentage of EdU-negative” value came to 5.29 ± 0.59% in series [1] (setting [12]), 9.88 ± 1.6% in series [1] (setting [13]), 22.9 ± 3.6% in series [2] (setting [12]) and 25.9 ± 4.6% in series [2] (setting [13]).

Regarding “MKLGLLCALLSLLAGHGWADTRAIGAEECRPNSQPWQAGLFHLTRLFCGATLISDRWLLTAAHCRKPYLWVRLGEHHLWKWEGPEQLFRVTDFFPHPGFNKDLSANDHNDDIMLIRLPRQARLSPAVQPLNLSQTCVSPGMQCLISGWGAVSSPKALFPVTLQCANISILENKLCHWAYPGHISDSMLCAGLWEGGRGSCQGDSGGPLVCNGTLAGVVSGGAEPCSRPRRPAVYTSVCHYLDWIQEIMEN [Q9UKQ9]”, the “percentage of EdU-negative” value in series [1] (setting [14]) was determined as 5.253 ± 0.046%; in series [1] (protein concentration 0.225 µM) it was 5.62 ± 1.2%; in series [2] (setting [14]) it was 26.66 ± 0.14%; in series [2] (protein concentration 0.225 µM), 29.4 ± 2.3%.

Turning to “MKLHYVAVLTLAILMFLTWLPESLSCNKALCASDVSKCLIQELCQCRPGEGNCSCCKECMLCLGALWDECCDCVGMCNPRNYSDTPPTSKSTVEELHEPIPSLFRALTEGDTQLNWNIVSFPVAEELSHHENLVSFLETVNQPHHQNVSVPSNNVHAPYSSDKEHMCTVVYFDDCMSIHQCKISCESMGASKYRWFHNACCECIGPECIDYGSKTVKCMNCMF [Q9GZX9]”, the “percentage of EdU-negative” value in series [1] (setting [14]) was 4.64 ± 0.11%; in series [1] (protein concentration 0.225 µM), 12.59 ± 0.086%; in series [2] (setting [14]), 23.8 ± 4.6%; in series [2] (protein concentration 0.225 µM) it was 28.8 ± 0.54%.

The record behind these values is the supplement of paper PMC11316812.
